Assay results published in patent US20130064788A1 (ELEVEN BIOTHERAPEUTICS, published 2013).

T1: human IL-17RA extracellular domain (ECD) (human, UniProt Q96F46 32-317)
T1 construct: For SPR it was made with and without a C-terminal BirA ligase tag: the biotinylated form was immobilised and the other was injected; also called IL-17RA ECD; IL-17RA ectodomain
T1 sequence: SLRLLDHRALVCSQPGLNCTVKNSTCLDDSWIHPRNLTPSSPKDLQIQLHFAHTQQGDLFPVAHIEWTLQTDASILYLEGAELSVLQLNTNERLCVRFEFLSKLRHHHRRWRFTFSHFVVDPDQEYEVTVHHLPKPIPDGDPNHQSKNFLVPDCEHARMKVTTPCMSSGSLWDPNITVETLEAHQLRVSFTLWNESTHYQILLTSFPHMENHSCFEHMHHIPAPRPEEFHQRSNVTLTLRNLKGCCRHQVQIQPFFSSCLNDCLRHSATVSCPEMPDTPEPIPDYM

T2: pre-assembled IL-17RC-IL-17A complex (IL-17A captured by immobilised IL-17RC) (human, UniProt Q8NAC3 21-538; Q16552 25-155, C-terminal biotin on BirA tag)
T2 construct: One receptor and one IL-17A dimer on the SPR chip; also called existing IL-17RC-IL-17A complex
T2 sequence 1: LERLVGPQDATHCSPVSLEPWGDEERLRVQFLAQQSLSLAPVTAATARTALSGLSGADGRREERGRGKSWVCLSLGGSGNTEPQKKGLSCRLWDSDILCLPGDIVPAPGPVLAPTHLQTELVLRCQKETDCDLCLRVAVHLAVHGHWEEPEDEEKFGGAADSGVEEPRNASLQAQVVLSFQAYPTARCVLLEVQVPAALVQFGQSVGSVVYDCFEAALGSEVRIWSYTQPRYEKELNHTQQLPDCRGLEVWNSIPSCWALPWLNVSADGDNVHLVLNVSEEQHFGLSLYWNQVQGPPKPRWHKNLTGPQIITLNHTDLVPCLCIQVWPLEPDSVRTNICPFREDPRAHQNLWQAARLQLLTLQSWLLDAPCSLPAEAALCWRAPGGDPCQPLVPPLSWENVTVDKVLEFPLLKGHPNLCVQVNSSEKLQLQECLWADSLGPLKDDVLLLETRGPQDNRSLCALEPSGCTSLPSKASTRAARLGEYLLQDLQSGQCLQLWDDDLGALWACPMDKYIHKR
T2 sequence 2: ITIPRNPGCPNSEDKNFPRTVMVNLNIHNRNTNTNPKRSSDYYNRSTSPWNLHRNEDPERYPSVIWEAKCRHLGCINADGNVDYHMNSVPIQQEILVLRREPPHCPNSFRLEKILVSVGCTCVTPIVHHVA

T3: pre-assembled IL-17RB-IL-25 complex (IL-25 captured by immobilised IL-17RB) (human, UniProt Q9NRM6 18-292; Q9H293 33-177, C-terminal biotin on BirA tag)
T3 construct: One receptor and one IL-25 dimer on the SPR chip
T3 sequence 1: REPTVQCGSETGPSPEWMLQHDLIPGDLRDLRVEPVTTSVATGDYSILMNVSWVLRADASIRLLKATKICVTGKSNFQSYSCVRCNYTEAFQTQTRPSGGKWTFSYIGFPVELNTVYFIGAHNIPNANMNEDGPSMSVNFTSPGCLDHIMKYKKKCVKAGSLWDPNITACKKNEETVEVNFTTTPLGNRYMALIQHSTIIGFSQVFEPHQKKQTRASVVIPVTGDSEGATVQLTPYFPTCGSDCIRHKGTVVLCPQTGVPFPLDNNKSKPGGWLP
T3 sequence 2: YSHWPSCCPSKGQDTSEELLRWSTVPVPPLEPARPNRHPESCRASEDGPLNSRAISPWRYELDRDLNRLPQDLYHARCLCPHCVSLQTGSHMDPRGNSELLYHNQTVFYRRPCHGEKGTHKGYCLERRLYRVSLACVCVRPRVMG

B1: IL-17F homodimer (ligand, not shown: small tags and cut ends)
chain: RKIPKVGHTFFQKPESCPPVPGGSMKLDIGIINENQRVSMSRNIESRSTSPWNYTVTWDPNRYPSEVVQAQCRNLGCINAQGKEDISMNSVPIQQETLVVRRKHQGCSVSFQLEKVLVTVGCTCVTPVIHHVQ
notes: Printed as full length IL-17F with a C-terminal hexa-His tag, secreted by High Five insect cells; It is a disulfide-linked homodimer; also called IL-17F/F
B2: IL-17RC extracellular domain (receptor)
chain: T2 sequence 1
notes: Expressed in 293S GnTI- cells with and without a C-terminal BirA tag; An additional C-terminal Fc tag was cleaved by 3C protease
B3: IL-17RB extracellular domain (receptor)
chain: T3 sequence 1
notes: Expressed with and without a C-terminal BirA tag
B4: IL-25 (IL-17E) (ligand)
chain: T3 sequence 2
notes: Expressed by High Five cells with a C-terminal hexa-His tag; It is treated as a dimeric cytokine in the SPR scheme; not shown: C-terminal hexa-His tag
B5: mutant single-chain IL-17A (R47E, S65K subunit - (G4S)6 linker - N89A, C-terminally truncated subunit - His tag) (designed binder)
chain: GITIPRNPGCPNSEDKNFPRTVMVNLNIHNRNTNTNPKRSSDYYNESTSPWNLHRNEDPERYPKVIWEAKCRHLGCINADGNVDYHMNSVPIQQEILVLRREPPHCPNSFRLEKILVSVGCTCVTPIVHHVASGGGGSGGGGSGGGGSGGGGSGGGGSGGGGSGITIPRNPGCPNSEDKNFPRTVMVNLNIHNRNTNTNPKRSSDYYNRSTSPWNLHRNEDPERYPSVIWEAKCRHLGCINADGNVDYHMASVPIQQEILVLRREPPHCPNSFRLEKILVSVGCTCVTPASHHHHHH
notes: also called sc17A-DN; mutant single-chain IL-17A protein

Experiments:
[1] = biological target: T1, human IL-17RA extracellular domain (ECD); assay: SPR, Biacore T100; biotinylated receptor on streptavidin chip, cytokine injected
Description: (§1) Whilst others have reported the binding affinities of IL-17RA and IL-17RC for IL-17A and IL-17F (7, 22), we considered it pertinent to assess the binding affinity of the second receptor-binding site. The strategy was to immobilize one receptor on the SPR chip at a low coupling density in order to minimize possible homo-dimerization (e.g. cross-linking) of the receptors on the chip. The dimeric IL-17 cytokine was then captured by this receptor so that each receptor would be bound to one dimeric IL-17 ligand, leaving an exposed and accessible second receptor-binding site. The second receptor was subsequently passed over the preformed receptor-cytokine complexes to measure the affinity of the second receptor-binding event. In this fashion, the complex was assembled in a stepwise manner and each of the binding affinities was measured (FIG. 3).
(§2) Binding affinities were calculated via surface plasmon resonance (SPR) on a BIACORE® T100 (GE Healthcare). C-terminally biotinylated IL-17 receptors were coupled to immobilized streptavidin on either an SA or CM4-sensor chip (GE Healthcare). An irrelevant, biotinylated protein was captured at equivalent immobilization densities to control flow cells. […] Data was analyzed using BIACORE® T100 evaluation software Version 2.0 (GE Healthcare). […]

[2] = biological target: B2; assay: as above
Description: as §1, §2

[3] = biological target: T2, pre-assembled IL-17RC-IL-17A complex …; assay: SPR; second receptor injected over IL-17A captured by immobilised IL-17RC
Description: as §1, §2

[4] = biological target: T3, pre-assembled IL-17RB-IL-25 complex …; assay: SPR, Biacore T100; second receptor injected over IL-25 captured by immobilised IL-17RB
Procedure: (§3) IL-17RA has been implicated in IL-17E (also known as IL-25) signaling together with IL-17RB (23). IL-25 promotes Th2 inflammatory responses and shares approximately ˜20% identity with IL-17A and IL-17F. […] We hypothesized that IL-17RA may only bind IL-25 once IL-25 is captured by IL-17RB. To test this hypothesis, we immobilized IL-17RB on an SPR chip, captured IL-25 and measured the affinity of IL-17RA for the IL-17RB-IL-25 complex. […] At concentrations up to 50 μM, no interaction could be observed between IL-17RA and IL-25, or between the IL-17RB-IL-25 complex and a second IL-17RB molecule.
as §2, with “cells. To measure the second receptor binding interaction, the cytokine was first captured to the immobilized receptor, followed by the second receptor injection. Low coupling densities (200-400 RU) and excess cytokine concentrations were used to optimize the number of cytokine homodimers bound to a single receptor.” for “cells.”

[5] = biological target: T1, human IL-17RA extracellular domain (ECD); assay: SPR, Biacore T100
Procedure: as §3
as §2, with “cells. To measure the second receptor binding interaction, the cytokine was first captured to the immobilized receptor, followed by the second receptor injection. Low coupling densities (200-400 RU) and excess cytokine concentrations were used to optimize the number of cytokine homodimers bound to a single receptor.” for “cells.”

[6] = biological target: T1, human IL-17RA extracellular domain (ECD); assay: plate binding assay to the soluble extracellular domain of IL-17RA

With B1 the Kd [1] was 292 nM and the Kd [2] was 4.4 nM.

With B2 the Kd [3] was 8000 nM.

B3: no binding (tested: up to 50 µM) [4].

B4: no binding (tested: up to 50 µM) [5].

With B5 the “affinity relative to wild-type IL-17A (factor)” value [6] was no more than 4 fold.
